In a protein production outcome set (Wang et al. 2014):

Assay: label from the status in PepcDB records
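Also: failed if final PepcDB status was selected cloned or expressed and not failed if soluble or beyond.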

MDLQGSVIKLQAAEAAGCKSPGRLLIIYLRPDAPRPQACASSVPAAMNRFKASKFRHMEARPSRREAWISDIRAGTTATCGNHIKSSCSLIAFNSDRPGVLGIISLEGHEENKRHVTYLGCHSDLVTDLDFSPFDDFLLASGSADRTIKLWRLSSTGEALPSVPGVVLGPEELPVDVLQFHPTADGVLVSTAGRTVKVWDVAKQQHLTELEAHKDLVQSAVWSRDGATVGTACKDKQLRIFDPRARAQASQSTQAHENNRDIRLAWTGIQEYLVSTGFNQMREREAKLWDTRVFSSALASITLDTSPGSLIPLLDPDSGLLVLAGKGENQLYCYEVTPQQPALSPVTQCILENALRGAALVPRQALAVMNCEVLQVLQLSDTAIIPISHRVPRKAVEFHEDLFPDTAGSVPASDAHTWWAGDNQQVQKVSLNPAHRPHPRFTSSLLPTLEPSPNMEQPAELPRADTELSEGFSSPSSLVSPSTPSSLGLSLSSTSGIGTSPSQRSLQSLLGPSSKFRHAEGTILHRDSHITNLKGLNLTTPGESDGFCANRLRVAVPLLSSGGQVAVLELQKPGRLPDTALPTLQNGAAVMDLVWDPFDPHRLAVAGEDARIRLWRVPPGGLKNVLTTPETVLTGHTEKIYSLRFHPLAADVLASSSYDLTIRIWDLQAGTEQLRLQGHQDQIFSLAWSPDGKQLATVCKDGRVRVYDPRSSPLPLQDGPGPEGGRGARIVWVCNGGCLLVSGFDSRSERQLQLYMADALAEGPSALLGLDVAPSTLLPSYDPDTGLVLLTGKGDTRVFLYEVIPEAPFFLECNSFTSPDPHKGFILLPKTECDIQDVEFARCLRLRQTSLEPVAFRLPRVRKEFFQDDVFPDTAVTWASALDAKAWFKGANGQPRLLSLQPPGMTPVSQAPREVPARRTPSSAQYLEEKSDQQKKEELLNAMVAKLGNREDPLPQDSFEGVDEDEWD
protein production: failed

MRYSIYLCILFVLSILSCNSKQEDRVIESFYVRKDDLGRNVSISVNPKRILSLTPSITELVYTFSDTSRLIGRSVWCDYPAGVKVIPAVNNYPLDIEGVVRLKPDLILVKQGMISVQELDKLEQLHLAVYVQKYDLLNEIYASTKTLVEITKGDSATYKHWLTSMQSDTMHTSVQHAKTCLAVTSVSPIYVFGKTTFVSELIEQAGGKNCVETIQSAYPTVDVEYILRANPDVFIFNSTDQQKLFFETYPLLKQCKGYITNQLFVIDDSIMSRPGIRLPILKDSLVSILSK
protein production: failed

MHRVHGTLHASFTIECRNMFKRFFLALIGVGILLSESTQASESPPYSMVLLTENFPPFNMAVDGKNFAQENNIDGIAAEVVREMFKRANIGYSMTLRFPWDRVYKLALDKPGYGVFSTTRLPEREKLFKWIGPLGSYDWIMLARGDSPITLASLEQAKDYRIGAYKGDAIGERLNAMGLNPILMLRDRDNVKKLANGQIDLWAVGDPVGRYLAKLEGVSGFKTALRFNSAELYLAVNKSTPDEIVNRLQAALDQMRTEGWVDAVKARYQLEHHHHHH
protein production: not failed

MQSDKVLNLPAGYFGIVLGTIGMGFAWRYASQVWQVSHWLGDGLVILAMIIWGLLTSAFIARLIRFPHSVLAEVRHPVLSSFVSLFPATTMLVAIGFVPWFRPLAVCLFSFGVVVQLAYAAWQTAGLWRGSHPEEATTPGLYLPTVANNFISAMACGALGYTDAGLVFLGAGVFSWLSLEPVILQRLRSSGELPTALRTSLGIQLAPALVACSAWLSVNGGEGDTLAKMLFGYGLLQLLFMLRLMPWYLSQPFNASFWSFSFGVSALATTGLHLGSGSDNGFFHTLAVPLFIFTNFIIAILLIRTFALLMQGKLLVRTERAVLMKAEDKE
protein production: not failed

MNLGQWIGLIALILSLYILWQIKEVLLLMFAAVVLATTLNRLAKRFQRSGMKRGWAVMLAVAIFFAVVVGFFWLIVPPFAEQFNELTYRVPQGFERFNAWINELRTRIPAQLVPYIPDLNSLIQQAQPFINRVLGSSFAIVSGSLEVVLKVLLVLVLTGMLLADPIAYRKVFVRLFPSFYRRRVDGILDQCEVSLEGWVTGAVIAMGVVGLMSVVGLSILGVKAALALGVLAGFLNLIPNLGPTLSVVPAMAIALLDSPWKVVAVLILYFIIQQAESNFITPIVMAQQVSLLPAVTLISQLFFVTFFGFLGLFLALPLTVVAKIWVQEVLIKDVLDEWGHDHSQESELVMVSHYSEGDDHWSDDKQANKPTDDTVSQED
protein production: failed

MGVLDIVKAGVISGDELNKIYDYAKAEGFAIPAVNVVGTDSINAVLEAAKKVNSPVIIQFSNGGAKFYAGKNCPNGEVLGAISGAKHVHLLAKAYGVPVILHTDHAARKLLPWIDGLIEANAQYKKTHGQALFSSHMLDLSEESLEENLSTCEVYLQKLDALGVALEIELGCTGGEEDGVDNTGIDNSKLYTQPEDVALAYERLGKISDKFSIAASFGNVHGVYKPGNVSLQPEILKNSQKFVKDKFALNSDKPINFVFHGGSGSELKDIKNAVSYGVIKMNIDTDTQWAFWDGVREYELKNRAYLQGQIGNPEGDDKPNKKYYDPRVWLRSGEESMIKRLEIAFEDLNCINKN
protein production: not failed

MSSSLMTSSGFRFLFPIALLGMVSVGMGNIIQMTQSNWGIAANLPYILLGCALVLCYSFKQGRESMVCLSMLVAYFVIQHRLQVPLNSGTALLELTILATLLPVSFLTVFLFNKDGFDSKAMFIYVLMLVMFILWSYIILAYYVDGGFEQWTSGILFIVPSVSKLPFILVLYCVGIVCFLGILLLKTNKIIHAMTYSAMALASATFIFFDVQYISSTMFTLTGLLIIIYSTSASHQLAFTDSLTQIPSRRALDLDLKHMGRKFTIAMLDVDHFKKFNDTYGHDIGDDVLKMVASRLMKTRGGAKVYRFGGEEFTMVFKGKNVEDCRQYIEEARKAIAEYEMILRDKASRPDDHKQGQQNRGTEDMQRESVFVTASFGAADSRNGREPAEVIKLADAALYKAKKAGRNCTRVNQN
protein production: failed

MAQTQTFRRTCFLLAIFILISVSGIGTASEFRVWPGQSIQDAVDSASPGDIILVESGEFNESIRVNKENLTIESASGNPDDIFIAGDTPISYVFEVVANDVKINFFSITDGRCGIFLNNVENCVINGNKISNQEAGIYLLNSRNNLLTNNMVYSNEDCGLKLLASSENIIYGNYFDNVENARDNRFNVWNNSKGNYWSDYGGTDENGDGIGDTPYAINPEVGSMDYRPLIEYSQEAPILPKALFTSDVTEGYAPLVVRFKDFSEDAASRLWDFGDGNFSSYPNPQHTYLNEGTYVVSLTVSNENGSDSASVTVYVRDASELAGPMLPKAQFIYNTTSGHIPLVIKFVDISENADCVTWYFGDGKTSCCPEPEHTFCCPGSYTVSLAAINENGTSSASIVVNVLPAESVESSEDTENSANTGSGSDKNNACNIVNETDADASEKAGDPELITRSENTDSLGNSIIEYASDTTDKFADAENSINAEATENSESDSNGGGEGTGTARIIHREELEAIKDSVISTASSNILKETERALENETLKVQKNVEDFVDDSLPESVGDSLPEMEQRIAPWIPSFLGLAGVIFIVSVMKRGRRRRQK
protein production: failed

MSLENKFARTVLGDIPVEKLGITDCHDHFIKNGGPEVEEHIDFLMLNVDASIKEFKEFIDRGGSTIVTMDPPNVGRDVLKTLEIANAVKNLGGNVIMSTGFHKAKFYDKYSSWLAVVPTEEIVKMCVAEIEEGMDEYNYNGPVVKRSKAKAGIIKAGTGYGAIDRLELKALEVAARTSILTGCPILVHTQLGTMALEVAKHLIGFGANPDKIQISHLNKNPDKYYYEKVIKETGVTLCFDGPDRVKYYPDSLLAENIKYLVDKGLQKHITLSLDAGRILYQRNYGLTKGKQTFGLAYLFDRFLPLLKQVGVSKEAIFDILVNNPKRVLAFDEKRNFDPLKVSKEVLELKKELNLNEGHHHHHH
protein production: not failed

MRALALICVVWVCWRESCARHGTEDSSESGLRYAYTLVVDGTANTRRCFGTGHVDGEAFVGYSNNKTHGIGRWVNASHVEEENKEFVRQCKELQAELDKMQNNSKVIGVKTVQLDVGCTSKIEKHYAYDGNETEDDTATSASERDRDCQKKLTEYRKLVLASAVSPQLEVERRSSGREGGMRLRCFARDYYPADLEIRWWKDDGGGGALPQTSKQHHDPLPSGNGLYQKHIDVYVDGGLEHVYSCRVKGIATGLELQIVRWKGYARGAGNSVVLLALFIPASVMAAVVVGSVLIRKKSKEQRKTRRRFGRRSGHEPKRPSYQVKRRAEPPCDLPMTIWFRGDNVMSTQVEACPAYAVTMSARELSDAWSNGDGPIVTVPDPSI
protein production: not failed

MLACAIALRLAAAVAAPVDSPTVDVAPPAPAEVAPPGPGRTAAPDLSAPPPPPADRPGPWRVYGAAAAGAAASDVLFAGIFAIGMVQLFGDLWDGEASADAGGLTLALVGLGGFLAVTPAVTVWAAQRVAGRERTAAAYWACFGVRLLGFAAANAFPAATLATELVLAPWVVSRIVMSGAPAATPLRPEVPAPAGADGPATRARPLRDPALAWR
protein production: failed

MAIVKMNKFTLLAFESEKEKLLKKIQSSSEVEFINLQDEEKVEGNEVFESLSKDDLDAETTLIEENVSKTRSALDFLKEFVAEVGGLKALKAGKESLTLDELEVKVENSNWEVVYSEVKKMERELATLENEKTKLLGEIEILEPWQSFDAPLGELNNFEKVVAFLGVISSQNLENMKNEIESEFKESYIEVISNTDQDSYVFVMTMKERAEEMDEVLKNFGFSAFQTKYKEKASVLVEEFKLKIQEIEAQKSDLKGVLSNYREEKRTLELAYEYYSNILLRKEASENFLKTDKVVVIQGWVPKNDNSSLEGIIQSSVGDMYYLEFEEVKEEEVAEVPVKLHNKGPAAAFDSITEMYSLPRYDEIDPTPLLTPFYLVFFGMMVADLGYGLVLFVGSLLAMKLLNLDEAQEKFAKFFMYLSIATTIAGAVFGTAFGFELKSIGLINPSKDTNLLLILSVGFGVIQIFFGLFIKAYMLIRDKQYLYALFDVGSWIMLLIGLPMIFFDGPISLVGKVLSIVGSILIILTQGRDEETKGAQIGQGLYALYGITGYVGDLVSYTRLMALGIAGGSIAAALNLIIGMFPGIAVIIVGPLFFIAAHTFNMLLSLLGAYVHTARLQYVEYFSKFYEGGGKAFTPFRTINKFITIKRNK
protein production: failed

MLSKPMELLRPSKGMINVHPIQRGGILTEEARKVLLEWGDGYSMCDICLEGRVDLLDKPPVKRFKEEVAEFLGMDEVRFTAGARHAKFVAMSGFKGALVVDSLAHYTTYIAAELNGLRVYEVPNTGYPEFRIEAESYTDVFEKVKEETGDYPAVALLTHADYKYGNLADAKKVAEICRDYGIPLILNTAYTSGIMEVSGRETGCDFIVASGHKSWAATAPIGILATTFEFAERVFRVSEVRGNWSGRAFTKKEVALFGCSPVYGLPLVTLMASFPVVKERVKRWKEEVEKARWFVEEMEKIEGVMLLGERPKNHTLMNFETPSFNLIAKKHRRKGYFLYHELKERGIFGVQPGMTRNVKLNVYGLSWEEVERVAEAFKEIAEKYGLEVED
protein production: failed

DPQILTTPGRDIAELRRIAGRPLSVAIDFEGGRVLRHRGILGDFPSPQVMAQTMTPEQVRGMAYDMGRSLFAHGINVNFAPVVDIEAGLEVVGDRAFSPDPLIDATYATAFAQGMADAGVRPVLKHFPGHGRASGDSHTAQVHTPPLAELEKLDLIPYGRVP
protein production: failed

MANRQRGVALIIVLMLLAIMATIAATMSERLFLQFQRGSNQIHYQQAYWYSVGVEALAEVGIEQSYKDSDTINLSQPWAIKEQVYPLDYGQAAGRIWDKQACFNLNVLSRVQPTGQQTTRPYLVQVLQRLLEESDVEPYQAEVIADSTWEYIDSDSTVRSTTGVEDSTYESMKPSYLAANGWMADKTELRAVYQVSGEIYQKIEPLVCAIPSDDWRLNVNTIEVEQAPILVAMFSPNLSSSDAVQLIEKRPFDGWDSVDEFLAESELTGLSDDVKKNAKGYLGVDSSFFELDAQVLVDDSRVRIRSLLQSTNRETVTVVRRRFGGISERVSDRSAE
protein production: failed

MFLRIANKILKRLAGVQVIPVNKKRLSVLDNKHLHIASNSILLEGTSLDFRQEISSSDTYVSIGGYCLIKAIFTFETTTGLITIGNNVHIGNAHFICRSAITIHDDVTMAWGITLYDHNSHSIHWEERKDDNKTCYEDFVQHHGNNIVNKNWINVLSRPIVIESKAWIGFNVTILKGVTIGEGAVIGACSVVTKDVPAWTVVAGNPAAVVKHLQKPE
protein production: failed
